Reference: the supplement of paper PMC12667976
± gives the standard error.

B1: library; numbered along this chain (parent)
chain: MATDAALRRLLRLHRTEIAVAVDSAFPLLHALADHDVVPEDKFQETLHLKEKEGCPQAFHALLSWLLTQDSTAILDFWRVLFKDYNLERYGRLQPILDSFPKDVDLSQPRKGRKPPAVPKALVPPPRLPTKRKASEEARAAAPAALTPRGTASPGSQLKAKPPKKPESSAEQQRLPLGNGIQTMSASVQRAVAMSSGDVPGARGAVEGILIQQVFESGGSKKCIQVGGEFYTPSKFEDSGSGKNKARSSSGPKPLVRAKGAQGAAPGGGEARLGQQGSVPAPLALPSDPQLHQKNEDECAVCRDGGELICCDGCPRAFHLACLSPPLREIPSGTWRCSSCLQATVQEVQPRAEEPRPQEPPVETPLPPGLRSAGEEVRGPPGEPLAGMDTTLVYKHLPAPPSAAPLPGLDSSALHPLLCVGPEGQQNLAPGARCGVCGDGTDVLRCTHCAAAFHWRCHFPAGTSRPGTGLRCRSCSGDVTPAPVEGVLAPSPARLAPGPAKDDTASHEPALHRDDLESLLSEHTFDGILQWAIQSMARPAAPFPS

Variants of: B1
Assay: AIRE transcriptional activation functional score (insulin promoter-GFP; nonsense median 0, synonymous median 1) (normalised score); higher = higher AIRE activity (more reporter activation)
Details: with insulin promoter-GFP reporter in HEK293
Outline: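 Using Bxb1 recombinase, codon-optimized NNN-codon libraries for three AIRE regions were inserted into Flp-In T-REx HEK293 landing-pad cells with an insulin core promoter-GFP reporter. After integrants (mCherry+, BFP−) were sorted at day 7 and expanded for 7 days, the top 10% GFP and unselected integrant populations underwent tile-sequencing. Functional scores are wild-type-subtracted enrichments of variants in select over non-select samples. A cutoff of 10 counts per million in non-select applied, and values were rescaled (nonsense median 0, synonymous median 1) and averaged over biological replicates.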
T72P was tested, and the “AIRE transcriptional activation functional score” value was 0.606 ± 0.35. P95M was tested, and the “AIRE transcriptional activation functional score” value was 1.41 ± 0.41. In the case of E298R, the “AIRE transcriptional activation functional score” value is reported as 0.634 ± 0.13. For F236N, the “AIRE transcriptional activation functional score” value was 1.68 ± 0.29. G467T was tested, and the “AIRE transcriptional activation functional score” value was 0.0754 ± 0.27. With P254D the “AIRE transcriptional activation functional score” value was 0.547 ± 0.13. In the case of E383L, the “AIRE transcriptional activation functional score” value is reported as 1.22 ± 0.32. Q57R was tested, and the “AIRE transcriptional activation functional score” value was 0.643 ± 0.75. L516F was tested, and the “AIRE transcriptional activation functional score” value was 1.48 ± 0.15. With P365C the “AIRE transcriptional activation functional score” value was 1.05 ± 0.19. With A31L the “AIRE transcriptional activation functional score” value was 0.635 ± 0.32. With Q69G the “AIRE transcriptional activation functional score” value was 0.383 ± 0.3. With Q69F the “AIRE transcriptional activation functional score” value was -0.0774 ± 0.21. I330D was tested, and the “AIRE transcriptional activation functional score” value was 0.391 ± 0.074. R132L was tested, and the “AIRE transcriptional activation functional score” value was -0.017 ± 0.32. With L308W the “AIRE transcriptional activation functional score” value was -0.607 ± 0.18. For C310M, the “AIRE transcriptional activation functional score” value was 0.814 ± 0.11. In the case of C310R, the “AIRE transcriptional activation functional score” value is reported as 0.907 ± 0.33. With Q172F the “AIRE transcriptional activation functional score” value was 1.82 ± 0.32. P384A was tested, and the “AIRE transcriptional activation functional score” value was 0.99 ± 0.33. In the case of T183K, the “AIRE transcriptional activation functional score” value is reported as 0.924 ± 0.3. A117K was tested, and the “AIRE transcriptional activation functional score” value was 0.457 ± 0.24. For R513G, the “AIRE transcriptional activation functional score” value was -0.188 ± 0.48. With V345Q the “AIRE transcriptional activation functional score” value was 0.581 ± 0.12. P126E was tested, and the “AIRE transcriptional activation functional score” value was 0.762 ± 0.25. With P126K the “AIRE transcriptional activation functional score” value was 1.08 ± 0.12. In the case of Q342E, the “AIRE transcriptional activation functional score” value is reported as 0.971 ± 0.22. Q342C was tested, and the “AIRE transcriptional activation functional score” value was 1.09 ± 0.16. For D198M, the “AIRE transcriptional activation functional score” value was 1.02 ± 0.086. With A141E the “AIRE transcriptional activation functional score” value was 1.49 ± 0.21. In the case of A352T, the “AIRE transcriptional activation functional score” value is reported as 1.32 ± 0.082. With S220W the “AIRE transcriptional activation functional score” value was -1.37 ± 0.28. With A202Q the “AIRE transcriptional activation functional score” value was 0.415 ± 0.33. In the case of P101W, the “AIRE transcriptional activation functional score” value is reported as -5.52 ± 1.2. In the case of P483I, the “AIRE transcriptional activation functional score” value is reported as 1.6 ± 0.16. In the case of K52N, the “AIRE transcriptional activation functional score” value is reported as -0.178 ± 0.3. In the case of E137N, the “AIRE transcriptional activation functional score” value is reported as 0.174 ± 0.43. R257I was tested, and the “AIRE transcriptional activation functional score” value was 0.805 ± 0.25. For R257Q, the “AIRE transcriptional activation functional score” value was 0.729 ± 0.17. In the case of G477H, the “AIRE transcriptional activation functional score” value is reported as 1.41 ± 0.098. G477E was tested, and the “AIRE transcriptional activation functional score” value was 0.302 ± 0.23. In the case of G477S, the “AIRE transcriptional activation functional score” value is reported as 0.661 ± 0.27. With S156W the “AIRE transcriptional activation functional score” value was 1.64 ± 0.071. With S156T the “AIRE transcriptional activation functional score” value was 1.75 ± 0.85. In the case of G219C, the “AIRE transcriptional activation functional score” value is reported as 1.5 ± 0.18. For R465A, the “AIRE transcriptional activation functional score” value was 0.476 ± 0.11. For R113W, the “AIRE transcriptional activation functional score” value was 0.668 ± 0.047. R113H was tested, and the “AIRE transcriptional activation functional score” value was 1.08 ± 0.67. V188M was tested, and the “AIRE transcriptional activation functional score” value was 1.32 ± 0.044. For V188W, the “AIRE transcriptional activation functional score” value was 0.518 ± 0.034. In the case of P422V, the “AIRE transcriptional activation functional score” value is reported as 0.479 ± 0.25. With V192C the “AIRE transcriptional activation functional score” value was 0.889 ± 0.52. In the case of A265Y, the “AIRE transcriptional activation functional score” value is reported as 1.25 ± 0.06. For T468C, the “AIRE transcriptional activation functional score” value was 1.14 ± 0.24. T468Q was tested, and the “AIRE transcriptional activation functional score” value was 1.22 ± 0.19. In the case of L392F, the “AIRE transcriptional activation functional score” value is reported as 1.15 ± 0.14. In the case of G155D, the “AIRE transcriptional activation functional score” value is reported as 0.338 ± 0.16. In the case of C446L, the “AIRE transcriptional activation functional score” value is reported as 0.0671 ± 0.16. For C446W, the “AIRE transcriptional activation functional score” value was -0.0678 ± 0.057. In the case of C446Y, the “AIRE transcriptional activation functional score” value is reported as -0.213 ± 0.15. A321H was tested, and the “AIRE transcriptional activation functional score” value was 0.857 ± 0.15. With A73N the “AIRE transcriptional activation functional score” value was -0.949 ± 0.43. For A73Q, the “AIRE transcriptional activation functional score” value was -1.02 ± 0.79. With A413E the “AIRE transcriptional activation functional score” value was 0.842 ± 0.12. With G421F the “AIRE transcriptional activation functional score” value was 1.33 ± 0.074. R110K was tested, and the “AIRE transcriptional activation functional score” value was 1.25 ± 0.57. With R110G the “AIRE transcriptional activation functional score” value was 1.34 ± 0.43. In the case of S464F, the “AIRE transcriptional activation functional score” value is reported as 0.807 ± 0.17. With P148W the “AIRE transcriptional activation functional score” value was 0.0844 ± 0.061. P148K was tested, and the “AIRE transcriptional activation functional score” value was -0.163 ± 0.16. For P119W, the “AIRE transcriptional activation functional score” value was 1.58 ± 0.045. With Q94S the “AIRE transcriptional activation functional score” value was 0.266 ± 0.3. For Q276L, the “AIRE transcriptional activation functional score” value was 0.779 ± 0.25. For Q276Y, the “AIRE transcriptional activation functional score” value was 1.26 ± 0.065. In the case of K235W, the “AIRE transcriptional activation functional score” value is reported as 1.15 ± 0.051. In the case of L177R, the “AIRE transcriptional activation functional score” value is reported as 0.707 ± 0.43. With F543W the “AIRE transcriptional activation functional score” value was 1.23 ± 0.085. S248K was tested, and the “AIRE transcriptional activation functional score” value was 0.517 ± 0.079. In the case of G54P, the “AIRE transcriptional activation functional score” value is reported as -0.123 ± 0.31. In the case of L97Q, the “AIRE transcriptional activation functional score” value is reported as -0.412 ± 0.14. P355M was tested, and the “AIRE transcriptional activation functional score” value was 0.914 ± 0.015. For G240C, the “AIRE transcriptional activation functional score” value was 0.742 ± 0.1. For E376I, the “AIRE transcriptional activation functional score” value was 1.36 ± 0.14. In the case of W65T, the “AIRE transcriptional activation functional score” value is reported as 1.03 ± 0.31.
